Source: article PMC3313934, “Pinpointing P450s Associated with Pyrethroid Metabolism in the Dengue Vector, Aedes aegypti: Developing New Tools to Combat Insecticide Resistance” (PLoS Neglected Tropical Diseases, 2012)

Experiments:
CYP6Z2 = target: T1, CYP6Z2 (Anopheles gambiae, UniProt A8I285); assay: resorufin fluorescence turnover, recombinant membranes; assay type: biochemical; conditions: 5 µM substrate, NADPH regeneration, cyt b5, 0.1 M KPi pH 7.4, 25°C
T1 construct: recombinant membrane preparation from earlier work; cytochrome b5 added
T1 sequence (A8I285 1-492): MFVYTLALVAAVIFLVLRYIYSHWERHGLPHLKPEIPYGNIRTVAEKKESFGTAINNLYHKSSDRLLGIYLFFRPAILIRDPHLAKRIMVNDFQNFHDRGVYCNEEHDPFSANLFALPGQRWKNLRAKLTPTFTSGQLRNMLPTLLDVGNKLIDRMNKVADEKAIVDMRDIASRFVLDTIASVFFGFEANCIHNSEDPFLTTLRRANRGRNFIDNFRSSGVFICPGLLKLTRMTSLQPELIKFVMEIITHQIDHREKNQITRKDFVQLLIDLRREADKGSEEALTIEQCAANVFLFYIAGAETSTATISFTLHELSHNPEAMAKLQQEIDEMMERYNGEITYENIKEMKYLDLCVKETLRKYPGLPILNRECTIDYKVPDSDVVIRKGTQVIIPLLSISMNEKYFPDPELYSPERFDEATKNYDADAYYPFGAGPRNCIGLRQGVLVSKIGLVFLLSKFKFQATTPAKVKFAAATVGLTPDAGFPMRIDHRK

[1] = substrate: CC1(C)C(C=C(Cl)Cl)C1C(=O)OCc1cccc(Oc2ccccc2)c1; assay: HPLC substrate depletion, recombinant E. coli membranes, Michaelis-Menten fit; assay type: biochemical, Aedes aegypti; conditions: 0.1 µM P450, 0.8 µM cyt b5, NADPH regeneration, 200 mM Tris-HCl pH 7.4, 30°C, 10 min, apparent
Excerpt: (§1) HPLC substrate depletion, recombinant E. coli membranes, Michaelis-Menten fit on CYP9J26

[2] = substrate: CC1(C)[C@H](C(=O)O[C@H](C#N)c2cccc(Oc3ccccc3)c2)[C@@H]1C=C(Br)Br; assay: as above; assay type: biochemical, Aedes aegypti; conditions: 0.1 µM P450, 0.8 µM cyt b5, NADPH regeneration, 200 mM Tris-HCl pH 7.4, 30°C, 10 min, apparent
Excerpt: as §1

[3] = substrate: CC1(C)C(C=C(Cl)Cl)C1C(=O)OCc1cccc(Oc2ccccc2)c1; assay: as above; assay type: biochemical, Aedes aegypti; conditions: 0.1 µM P450, 0.8 µM cyt b5, NADPH regeneration, 200 mM Tris-HCl pH 7.4, 30°C, 10 min, apparent; remark: listed apart in the source
Excerpt: (§2) HPLC substrate depletion, recombinant E. coli membranes, Michaelis-Menten fit on CYP9J32

[4] = substrate: CC1(C)[C@H](C(=O)O[C@H](C#N)c2cccc(Oc3ccccc3)c2)[C@@H]1C=C(Br)Br; assay: as above; assay type: biochemical, Aedes aegypti; conditions: 0.1 µM P450, 0.8 µM cyt b5, NADPH regeneration, 200 mM Tris-HCl pH 7.4, 30°C, 10 min, apparent; remark: listed apart in the source
Excerpt: as §2

In the case of COc1ccc2nc3ccc(=O)cc-3oc2c1 [RME], the “resorufin fluorescence turnover, recombinant membranes” value (CYP6Z2) is reported as “greatest activity towards RME for the resorufin ethers and L-ME for the proluciferins”.

B1: CYP9J26 (Aedes aegypti) (protein)
chain: MEVELLHVGVLVAIVAFLYRWITRNNDYFHDKPIPSMAVTPFLGASGPLLLRKVTFNDFVQSIYNKYPGVKVFGMFDTITPFFVIRDPELIKQIGIKDFDHFVDHRPTFGLDDETAEHPKALFRKTLFSMTGQRWKEMRATLSPAFTGSKMRQMFSLMSECCDEMMKHYLDKAKGSGRVEVEMKDLLSRISINVIASCAFGIKVDCFKEQEHEFLYHGRKMMGFGRPIVIARMLAMRVFPKFAAKFGIDLLDREQANYFTHVFQETIRARESHGYIRHDMIDLLLQARKGTLKYQEEKDDQEGFATVQESDVGKADVSKSMTEAEMIAQCLIFFLGGFDTVSTCAMFTAYELVRNPEVQHKLYEEIKQTEKELEGKPLSYDALQKMKYMDMVVSETLRMWPLAPATDRLCTQDYTIDDGQGVRFTIDKGTCVWFPAAGLHHDPQYFPNPEKFDPERFNDENKRNINLGAYLPFGIGPRNCIGSRFALMEVKAVMYFILLKFSFVRGAKTQIPMQLRKGFTNLGPENGMHVELKLR
notes: full-length, ompA-Ala-Pro leader at N-terminus, pCW-ori+, E. coli DH5alpha membranes; co-expressed An. gambiae CPR, added An. gambiae cytochrome b5
With B1 the Km [1] was 4.2 ± 0.9 µM, the kcat [1] was 0.01 ± 0.00167 s⁻¹ and the Km [2] was 1.2 ± 0.2 µM. It also gave a kcat [2] of 0.00367 ± 0.000167 s⁻¹.

B2: CYP9J32 (Aedes aegypti) (protein)
chain: VIYRQVKKHYDYFHDKPIPSMATVPLLGSTGPLMTKRCTFNDFIQTIYNKYPSAKIFGLFDMTTKMFVLRDPEVIKKITVKDFEYFVDRRPLFGANKEDDGNENILFNKTLVGMVDQRWRDMRAILSPAFTGSKMRAMFELIEQYCTQMVPILKEQSAESGYVDYEMKDFFSRVANDIIATCAFGLQVESLKSRDNEFYTMGKQMMNFNRFIVLLRVMGLRFFPSLMIKMGVDIVDREQNQYFSKIIKEAVRARETHGIVRPDMIHLLMQARKGTLKHQQETTESTAGFATVEESDVGKSVVSKTMSEPEFIAQCLIFFLAGFDTVSTGMLFMAYELALNPDIQQKLYEEIAQTNKELGGKPATYDTLQKMKYMDMVVSESLRMWPVAAFDRKCGRDYVLDDGAGLKFTIDAGTCIWVPVYGIHRDPKYYPNPDKFEPERFSDENRGKIDMTMYMPFGMGPRNCIGSRFALMEIKAIMYALLLNFSIERNEKTQVPLKLVKGFVGLQVENGLHLRFKKRK
notes: full-length, ompA leader with Ala-Gly linker at N-terminus, E. coli DH5alpha membranes; co-expressed An. gambiae CPR, added An. gambiae cytochrome b5
In the case of B2, the Km [3] is reported as 2.3 ± 1.1 µM, the kcat [3] is reported as 0.0133 ± 0.00167 s⁻¹ and the Km [4] is reported as 5.2 ± 2.1 µM. The kcat [4] was 0.05 ± 0.00833 s⁻¹.
